Test results as given in patent US20230067225A1.
Numbering of substitutions follows the chain as printed. Names and notes keep the numbering of the source.

B1: wild-type TEVΔ (TEVΔ-S219V), purified with His tag from bacteria (protein)
chain: HHHHHHGESLFKGPRDYNPISSTICHLTNESDGHTTSLYGIGFGPFIITNKHLFRRNNGTLLVQSLHGVFKVKNTTTLQQHLIDGRDMIIIRMPKDFPPFPQKLKFREPQREERICLVTTNFQTKSMSSMVSDTSCTFPSSDGIFWKHWIQTKDGQCGSPLVSTRDGFIVGIHSASNFTNTNNYFTSVPKNFMELLTNQEAQQWVSGWRLNADSVLWGGHKVFMV
B2: uTEV2Δ (TEVΔ/S219V + T30A + S153N), purified with His tag from bacteria (protein)
chain: B1 chain with T36A, S159N
B3: uTEV1Δ (TEVΔ/S219V + S153N), purified with His tag from bacteria (protein)
chain: B1 chain with S159N
B4: uTEV3, full-length (HIS6-MBP-TEV I138T S153N T180A, S219V) (protein)
chain: GESLFKGPRDYNPISSTICHLTNESDGHTTSLYGIGFGPFIITNKHLFRRNNGTLLVQSLHGVFKVKNTTTLQQHLIDGRDMIIIRMPKDFPPFPQKLKFREPQREERICLVTTNFQTKSMSSMVSDTSCTFPSSDGTFWKHWIQTKDGQCGNPLVSTRDGFIVGIHSASNFTNTNNYFASVPKNFMELLTNQEAQQWVSGWRLNADSVLWGGHKVFMVKPEEPFQPVKEATQLMNELVYSQ

Key:
[1] = molecular target: CD4-HA-CIBN-2xMKII-NNES-heLOV-GAL4 (FLARE transcription factor component) (Arabidopsis thaliana); assay: cell-based or functional assay
[2] = molecular target: B2Ar-heLOV-TEVcs-Gal4-V5 (SPARK transcription factor component) (UniProt P07550); assay: cell-based or functional assay
[3] = molecular target: MBP-TEVcs(ENLYFQ/M)-eGFP [MBP: P0AEX9]
[4] = molecular target: MBP-TEVcs(ENLYFQ/S)-eGFP [MBP: P0AEX9]; assay: Michaelis-Menten fit of the in-gel fluorescence cleavage assay, purified protease with the substrate titrated; the filing defines affinity as Km
[5] = molecular target: MBP-TEVcs(ENLYFQ/S)-eGFP [MBP: P0AEX9]

Molecule | turnover rate (kapp) [3] [s⁻¹] | turnover rate (kapp), fold against wild-type TEVΔ [3] | also measured
eGFP-CaM-TEVΔ/S219V + S153N (FLARE protease component with uTEV1Δ) (enzyme) | – | – | FLARE mCherry reporter, high/low Ca+2 signal ratio [1]: 12; FLARE mCherry reporter, signal-to-background ratio [1]: 12.2
HA-arrestin-TEVΔ/S153N (SPARK protease component with uTEV1Δ) (enzyme) | – | – | SPARK mCherry reporter, +/-agonist signal ratio [2]: 20.7
B1 | 0.01 | – | –
B2 | 0.062 | 5.4- and 6.2-fold higher than wild-type | –
B3 | 0.054 | 5.4- and 6.2-fold higher than wild-type | –
B4 | – | – | fold improvement of Km against wild-type TEV [4]: Km improved by 3-fold; kcat/Km, fold against wild-type TEV [5]: a 2.8-fold increase in kcat/Km
